Assay results published in patent US9618524B2, “Method, composition, isolation and identification of a plaque particle and related biomarker” (Plaxgen Inc., priority 2012, dated 2017).

B1: Interleukin enhancer-binding factor 3 (protein)
chain: MRPMRIFVNDDRHVMAKHSSVYPTQEELEAVQNMVSHTERALKAVSDWIDEQEKGSSEQAESDNMDVPPEDDSKEGAGEQKTEHMTRTLRGVMRVGLVAKGLLLKGDLDLELVLLCKEKPTTALLDKVADNLAIQLAAVTEDKYEILQSVDDAAIVIKNTKEPPLSLTIHLTSPVVREEMEKVLAGETLSVNDPPDVLDRQKCLAALASLRHAKWFQARANGLKSCVIVIRVLRDLCTRVPTWGPLRGWPLELLCEKSIGTANRPMGAGEALRRVLECLASGIVMPDGSGIYDPCEKEATDAIGHLDRQQREDITQSAQHALRLAAFGQLHKVLGMDPLPSKMPKKPKNENPVDYTVQIPPSTTYAITPMKRPMEEDGEEKSPSKKKKKIQKKEEKAEPPQAMNALMRLNQLKPGLQYKLVSQTGPVHAPIFTMSVEVDGNSFEASGPSKKTAKLHVAVKVLQDMGLPTGAEGRDSSKGEDSAEETEAKPAVVAPAPVVEAVSTPSAAFPSDATAEQGPILTKHGKNPVMELNEKRRGLKYELISETGGSHDKRFVMEVEVDGQKFQGAGSNKKVAKAYAALAALEKLFPDTPLALDANKKKRAPVPVRGGPKFAAKPHNPGFGMGGPMHNEVPPPPNLRGRGRGGSIRGRGRGRGFGGANHGGYMNAGAGYGSYGYGGNSATAGYSQFYSNGGHSGNASGGGGGGGGGSSGYGSYYQGDNYNSPVPPKHAGKKQPHGGQQKPSYGSGYQSHQGQQQSYNQSPYSNYGPPQGKQKGYNHGQGSYSYSNSYNSPGGGGGSDYNYESKFNYSGSGGRSGGNSYGSGGASYNPGSHGGYGGGSGGGSSYQGKQGGYSQSNYNSPGSGQNYSGPPSSYQSSQGGYGRNADHSMNYQYR
B2: Isoform 2 of Spermatid perinuclear RNA-binding protein (protein)
chain: MVKHSTIYPSPEELEAVQNMVSTVECALKHVSDWLDETNKGTKTEGETEVKKDEAGENYSKDQGGRTLCGVMRIGLVAKGLLIKDDMDLELVLMCKDKPTETLLNTVKDNLPIQIQKLTEEKYQVEQCVNEASIIIRNTKEPTLTLKVILTSPLIRDELEKKDGENVSMKDPPDLLDRQKCLNALASLRHAKWFQARANGLKSCVIVLRILRDLCNRVPTWAPLKGWPLELICEKSIGTCNRPLGAGEALRRVMECLASGILLPGGPGLHDPCERDPTDALSYMTIQQKEDITHSAQHALRLSAFGQIYKVLEMDPLPSSKPFQKYSWSVTDKEGAGSSALKRPFEDGLGDDKDPNKKMKRNLRKILDSKAIDLMNALMRLNQIRPGLQYKLLSQSGPVHAPVFTMSVDVDGTTYEASGPSKKTAKLHVAVKVLQAMGYPTGFDADIECMSSDEKSDNESKNETVSSNSSNNTGNSTTETSSTLEVRTQGPILTASGKNPVMELNEKRRGLKYELISETGGSHDKRFVMEVEVDGQKFRGAGPNKKVAKASAALAALEKLFSGPNAANNKKKKIIPQAKGVVNTAVSAAVQAVRGRGRGTLTRGAFVGATAAPGYIAPGYGTPYGYSTAAPAYGLPKRMVLLPVMKFPTYPVPHYSFF
B3: Isoform 1B of Desmocollin-1 (protein)
chain: RWAPIPASLMENSLGPFPQHVQQIQSDAAQNYTIFYSISGPGVDKEPFNLFYIEKDTGDIFCTRSIDREKYEQFALYGYATTADGYAPEYPLPLIIKIEDDNDNAPYFEHRVTIFTVPENCRSGTSVGKVTATDLDEPDTLHTRLKYKILQQIPDHPKHFSIHPDTGVITTTTPFLDREKCDTYQLIMEVRDMGGQPFGLFNTGTITISLEDENDNPPSFTETSYVTEVEENRIDVEILRMKVQDQDLPNTPHSKAVYKILQGNENGNFIISTDPNTNEGVLCVVKPLNYEVNRQVILQVGVINEAQFSKAASSQTPTMCTTTVTVKIIDSDEGPECHPPVKVIQSQDGFPAGQELLGYKALDPEISSGEGLRYQKLGDEDNWFEINQHTGDLRTLKVLDRESKFVKNNQYNISVVAVDAVGRSCTGTLVVHLDDYNDHAPQIDKEVTICQNNEDFAVLKPVDPDGPENGPPFQFFLDNSASKNWNIEEKDGKTAILRQRQNLDYNYYSVPIQIKDRHGLVATHMLTVRVCDCSTPSECRMKDKSTRDVRPNVILGRWAILAMVLGSVLLLCILFTCFCVTAKRTVKKCFPEDIAQQNLIVSNTEGPGEEVTEANIRLPMQTSNICDTSMSVGTVGGQGIKTQQSFEMVKGGYTLDSNKGGGHQTLESVKGVGQGDTGRYAYTDWQSFTQPRLGEESIRGHTLIKN
B4: Coagulation factor XIII B chain (protein)
chain: EEKPCGFPHVENGRIAQYYYTFKSFYFPMSIDKKLSFFCLAGYTTESGRQEEQTTCTTEGWSPEPRCFKKCTKPDLSNGYISDVKLLYKIQENMRYGCASGYKTTGGKDEEVVQCLSDGWSSQPTCRKEHETCLAPELYNGNYSTTQKTFKVKDKVQYECATGYYTAGGKKTEEVECLTYGWSLTPKCTKLKCSSLRLIENGYFHPVKQTYEEGDVVQFFCHENYYLSGSDLIQCYNFGWYPESPVCEGRRNRCPPPPLPINSKIQTHSTTYRHGEIVHIECELNFEIHGSAEIRCEDGKWTEPPKCIEGQEKVACEEPPFIENGAANLHSKIYYNGDKVTYACKSGYLLHGSNEITCNRGKWTLPPECVENNENCKHPPVVMNGAVADGILASYATGSSVEYRCNEYYLLRGSKISRCEQGKWSSPPVCLEPCTVNVDYMNRNNIEMKWKYEGKVLHGDLIDFVCKQGYDLSPLTPLSELSVQCNRGEVKYPLCTRKESKGMCTSPPLIKHGVIISSTVDTYENGSSVEYRCFDHHFLEGSREAYCLDGMWTTPPLCLEPCTLSFTEMEKNNLLLKWDFDNRPHILHGEYIEFICRGDTYPAELYITGSILRMQCDRGQLKYPRCIPRQSTLSYQEPLRT
B5: Histone H1.3 (protein)
chain: SETAPLAPTIPAPAEKTPVKKKAKKAGATAGKRKASGPPVSELITKAVAASKERSGVSLAALKKALAAAGYDVEKNNSRIKLGLKSLVSKGTLVQTKGTGASGSFKLNKKAASGEGKPKAKKAGAAKPRKPAGAAKKPKKVAGAATPKKSIKKTPKKVKKPATAAGTKKVAKSAKKVKTPQPKKAAKSPAKAKAPKPKAAKPKSGKPKVTKAKKAAPKKK
B6: Isoform 2 of Arginase-1 (protein)
chain: MSAKSRTIGIIGAPFSKGQPRGGVEEGPTVLRKAGLLEKLKEQVTQNFLILECDVKDYGDLPFADIPNDSPFQIVKNPRSVGKASEQLAGKVAEVKKNGRISLVLGGDHSLAIGSISGHARVHPDLGVIWVDAHTDINTPLTTTSGNLHGQPVSFLLKELKGKIPDVPGFSWVTPCISAKDIVYIGLRDVDPGEHYILKTLGIKYFSMTEVDRLGIGKVMEETLSYLLGRKKRPIHLSFDVDGLDPSFTPATGTPVVGGLTYREGLYITEEIYKTGLLSGLDIMEVNPSLGKTPEEVTRTVNTAVAITLACFGLAREGNHKPIDYLNPPK
B7: Caspase-14 (protein)
chain: MSNPRSLEEEKYDMSGARLALILCVTKAREGSEEDLDALEHMFRQLRFESTMKRDPTAEQFQEELEKFQQAIDSREDPVSCAFVVLMAHGREGFLKGEDGEMVKLENLFEALNNKNCQALRAKPKVYIIQACRGEQRDPGETVGGDEIVMVIKDSPQTIPTYTDALHVYSTVEGYIAYRHDQKGSCFIQTLVDVFTKRKGHILELLTEVTRRMAEAELVQEGKARKTNPEIQSTLRKRLYLQ
B8: Ig kappa chain V-I region BAN (protein)
chain: DIQMTQSPSSLSASVGDRVTITCRASQGISNYLAWFQQKPGKAPKSLIYAASSLQSGVPSKFSGSGSGTDFTLTISSLQPEDFATYYCQQYNSYP

biological target: T1, Abeta-42 plaque particles (Homo sapiens, UniProt P05067); experiment: Mass spectroscopy proteomics, semi-quantitative binding affinity of serum proteins (plaqueproteome, Table 2); details: higher number = stronger affinity
T1 construct: Abeta 1-42
Outline: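 AD patient serum or plasma (50% in PBS) was incubated with Abeta-42 aggregates (30 μg) for 1 h at 37 °C, then stained with Thioflavin S for 30 min. Labeled particles were FACS-sorted, trypsin/Lys-C digested overnight and analyzed by MS/MS. Sequest searched human UniProt; Scaffold/Protein Prophet validated the identifications.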

Molecule | Semi-quantitative analysis of proteins binding to different plaque particles: Abeta-42
B1 | 4
B2 | 2
B3 | 4
B4 | 0
B5 | 2
B6 | 2
B7 | 5
B8 | 2

test system: High Density cholesterol (Chl Large) plaque particles; experiment: as above; parameters: species or system human; details: higher number = stronger affinity
Outline: (§1)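 Read-out is MS/MS protein identification (Sequest, strict trypsin, 20 ppm parent tolerance; Scaffold probabilities) of serum proteins bound to flow-sorted cholesterol plaque particles. These particles formed when 50% atherosclerotic serum was incubated with 30 μg cholesterol aggregates for 1 hr at 37° C.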

Molecule | Semi-quantitative analysis of proteins binding to different plaque particles: Chl Large
B1 | 0
B2 | 0
B3 | 0
B4 | 0
B5 | 0
B6 | 0
B7 | 0
B8 | 2

test system: Low density cholesterol (Chl small) plaque particles; experiment: as above; parameters: species or system human; details: higher number = stronger affinity
Outline: as §1

Molecule | Semi-quantitative analysis of proteins binding to different plaque particles: Chl small
B1 | 0
B2 | 0
B3 | 0
B4 | 1
B5 | 0
B6 | 0
B7 | 0
B8 | 1

biological target: T2, alpha-synuclein plaque particles (Homo sapiens, UniProt P37840); experiment: as above; details: higher number = stronger affinity
T2 construct: 140 amino acids polypeptide
Outline: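 AD-subject plasma or serum (800 μL of 50%) mixed with 30 μg preformed alpha-synuclein aggregates for 1 h at 37 °C; Thioflavin S-positive particles isolated by flow sorting. After reduction, acrylamide alkylation and overnight tryptic digestion, serum proteins identified by MS/MS with Sequest and Scaffold.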

Molecule | Semi-quantitative analysis of proteins binding to different plaque particles: Synuclein
B1 | 0
B2 | 0
B3 | 0
B4 | 0
B5 | 0
B6 | 0
B7 | 0
B8 | 1

test system: Tau plaque particles; experiment: as above; parameters: species or system human; details: higher number = stronger affinity
Outline: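 Serum or plasma proteins captured on Thioflavin S-labelled Tau plaque particles (Tau-74, Tau-275 oligomers preformed in PBS at 37° C for 2 h; 1 h co-incubation at 37° C) were isolated by FACS sorting, then tryptically digested and identified by MS/MS (Sequest, human UniProt, strict trypsin).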

Molecule | Semi-quantitative analysis of proteins binding to different plaque particles: Tau
B1 | 0
B2 | 0
B3 | 0
B4 | 0
B5 | 0
B6 | 0
B7 | 0
B8 | 2
